According to PMC6179379, “The IgM pentamer is an asymmetric pentagon with an open groove that binds the AIM protein” (Science Advances, 2018):
“And” between values parts separate entries of the source, which are not always exact repeats. Identical values can stand only once.

Experiments:
[1] = target: FLAG-tagged recombinant human IgM-Fc (human); experiment: negative-stain EM; purified IgM-Fc or IgM made with the J chain, about 15 μg/ml, 1% uranyl acetate; reference-free 2D class averages (RELION)
[2] = target: FLAG-tagged mouse IgM-Fc Cys414Ser variant (mouse); experiment: Western blotting after non-reducing SDS-PAGE; supernatant of HEK293T cells co-expressing FLAG-IgM-Fc and HA-J chain; anti-FLAG and anti-HA blots, reducing and nonreducing conditions
[3] = target: FLAG-tagged mouse IgM-Fc Cys414Ser variant (mouse); experiment: negative-stain EM; purified IgM-Fc or IgM made with the J chain, about 15 μg/ml, 1% uranyl acetate; reference-free 2D class averages (RELION)
[4] = target: T1, Mouse IgM-Fc pentamer with HA-tagged J chain (mouse, UniProt P01872 1-454; P01592 22-159); experiment: co-IP; complex from co-culture supernatant purified on ANTI-FLAG M2 Affinity Gel, then on an anti-AIM antibody column; eluate blotted with anti-HA in a reducing condition, bands quantified with ImageJ; five experiments; settings: partners not purified
T1 construct: Mouse immunoglobulin M heavy chain, Fc region: Cμ2-Cμ3-Cμ4 and the short tail; Mouse immunoglobulin J (joining) chain; as m2; also called Fc-pentamer/J-HA; IgM-Fc/J-HA; source: HEK293T transfected with pCAGGS-FLAG-mouse Fc and pCAGGS-mouse J chain-HA, co-cultured with cells expressing AIM-HA; not shown: FLAG, N-terminal, kept; copies: 10 + 1
T1 sequence (looked up) 1: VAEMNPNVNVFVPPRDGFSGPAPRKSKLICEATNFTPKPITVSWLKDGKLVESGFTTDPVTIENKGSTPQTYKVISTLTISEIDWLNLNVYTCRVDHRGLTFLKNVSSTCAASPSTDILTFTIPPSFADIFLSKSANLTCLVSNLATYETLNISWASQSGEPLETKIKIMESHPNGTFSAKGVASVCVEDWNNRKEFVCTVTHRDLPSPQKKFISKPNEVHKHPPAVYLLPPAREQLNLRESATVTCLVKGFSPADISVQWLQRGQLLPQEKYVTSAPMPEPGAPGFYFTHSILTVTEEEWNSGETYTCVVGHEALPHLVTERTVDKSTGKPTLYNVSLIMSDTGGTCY
T1 sequence (looked up) 2: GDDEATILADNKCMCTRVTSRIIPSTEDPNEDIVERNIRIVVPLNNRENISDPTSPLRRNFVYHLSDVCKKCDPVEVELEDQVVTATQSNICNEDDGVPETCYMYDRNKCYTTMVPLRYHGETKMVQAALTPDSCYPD

[5] = target: the molecule itself; experiment: negative-stain EM; purified IgM-Fc or IgM made with the J chain, about 15 μg/ml, 1% uranyl acetate; reference-free 2D class averages (RELION)
[6] = target: the molecule itself; experiment: negative-stain EM; purified FLAG-tagged mouse IgM-Fc oligomers made in the absence of the J chain; reference-free 2D class averages

“FLAG-tagged recombinant human IgM-Fc (domain or fragment)” gave a stoichiometry N [1] of 5.

For “FLAG-tagged mouse IgM-Fc Cys414Ser variant (domain or fragment)”, the stoichiometry N [2] was 4 and 5 and the stoichiometry N [3] was 4 and 5.

B1: HA-tagged mouse AIM (natural protein, UniProt Q9QWK4 22-352, looked up)
chain: ESPTKVQLVGGAHRCEGRVEVEHNGQWGTVCDDGWDRRDVAVVCRELNCGAVIQTPRGASYQPPASEQRVLIQGVDCNGTEDTLAQCELNYDVFDCSHEEDAGAQCENPDSDLLFIPEDVRLVDGPGHCQGRVEVLHQSQWSTVCKAGWNLQVSKVVCRQLGCGRALLTYGSCNKNTQGKGPIWMGKMSCSGQEANLRSCLLSRLENNCTHGEDTWMECEDPFELKLVGGDTPCSGRLEVLHKGSWGSVCDDNWGEKEDQVVCKQLGCGKSLHPSPKTRKIYGPGAGRIWLDDVNCSGKEQSLEFCRHRLWGYHDCTHKEDVEVICTDFDV
notes: Mouse AIM (CD5L), secreted; also called AIM-HA; source: HEK293T, transfected (pCAGGS-AIM-HA), co-cultured with cells expressing FLAG-mouse Fc and J chain-HA; culture supernatant, co-purified with the Fc pentamer
In the case of B1, the “ratio of HA signal, AIM-HA versus J-HA” value [4] is reported as 1.3 ± 0.12 J-HA signal per AIM-HA signal and the “stoichiometry N” value [4] is reported as 1 AIM per pentamer.

B2: FLAG-tagged recombinant mouse IgM-Fc (Cμ2 to tail) (domain or fragment, UniProt P01872 1-454, looked up)
chain: T1 sequence (looked up) 1
notes: Mouse immunoglobulin M heavy chain, Fc region: Cμ2-Cμ3-Cμ4 and the short tail (19 amino acids); also called mouse Fc; Fc monomer; source: HEK293T, transfected (pCAGGS-FLAG-IgM-Fc, with or without the J chain plasmid), in culture supernatant; not shown: FLAG, N-terminal, kept
B2 was tested, and the “stoichiometry N” value [5] was 5 and the “stoichiometry N” value [6] was 6.
